According to article PMC3276087 (Journal of Experimental Botany, 2011):
Numbering of substitutions follows the chain as printed. Names and notes keep the numbering of the source.

B1: His-tagged ACA8 N-terminus, wild type (6His-1M-I116) (domain or fragment)
chain: MTSLLKSSPGRRRGGDVESGKSEHADSDSDTFYIPSKNASIERLQQWRKAALVLNASRRFRYTLDLKKEQETREMRQKIRSHAHALLAANRFMDMGRESGVEKTTGPATPAGDFGI
B2: His-tagged ACA8 N-terminus S27D (6His-1M-I116) (domain or fragment)
chain: B1 chain with S27D
B3: His-tagged ACA8 N-terminus S29D (6His-1M-I116) (domain or fragment)
chain: B1 chain with S29D
B4: His-tagged ACA8 N-terminus S57D (6His-1M-I116) (domain or fragment)
chain: B1 chain with S57D
B5: His-tagged ACA8 N-terminus S99D (6His-1M-I116) (domain or fragment)
chain: B1 chain with S99D
B6: His-tagged ACA8 N-terminus S19D (6His-1M-I116) (domain or fragment)
chain: B1 chain with S19D
B7: His-tagged ACA8 N-terminus S22D (6His-1M-I116) (domain or fragment)
chain: B1 chain with S22D

biological target: bovine testes calmodulin (bovine, UniProt P62157 1-149); assay: SPR

B1 and B2 are within 1.5-fold of each other in Kd: 19.3 nM for the first, 26.5 nM for the second.

First: B3
Second: B4
The Kd of the first is 7.4-fold lower: 22.3 nM for the first, 165 nM for the second.

B5 and B6 are within 1.5-fold of each other in Kd: 11.3 nM for the first, 14.5 nM for the second.

In the case of B7, the Kd is reported as 23.9 nM.

Compared with B1, B2 is 2.1-fold higher in koff: 0.00244 s⁻¹ for the first, 0.0052 s⁻¹ for the second.

Going from B3 to B4, the koff rises from 0.00382 s⁻¹ to 0.0255 s⁻¹ (6.7-fold).

First: B5
Second: B6
The koff of the first is 2.4-fold lower: 0.00137 s⁻¹ for the first, 0.00325 s⁻¹ for the second.

B7 was tested, and the koff was 0.00139 s⁻¹.

First: B1
Second: B2
The kon of the first is 1.5-fold lower: 127000 M⁻¹ s⁻¹ for the first, 196000 M⁻¹ s⁻¹ for the second.

B3 and B4 are within 1.5-fold of each other in kon: 171000 M⁻¹ s⁻¹ for the first, 154000 M⁻¹ s⁻¹ for the second.

Compared with B5, B6 is 1.9-fold higher in kon: 121000 M⁻¹ s⁻¹ for the first, 224000 M⁻¹ s⁻¹ for the second.

With B7 the kon was 58000 M⁻¹ s⁻¹.
